Measurements from patent US7888090B2, “Mutants of O6-alkylguanine-DNA alkyltransferase” (Ecole Polytechnique Federale de Lausanne, priority 2004, dated 2011).

Columns and labels:
[1] = Periplasmic expression / stability under oxidizing conditions; set-up: species or system E. coli
Experimental: The activities towards AGT substrates are measured after purification without addition of reducing agents such as dithiothreitol or beta-mercaptoethanol. Alternatively, the activities of mutant AGT and wild type human are compared after their export into cellular compartments with oxidising redox potential (e.g. the periplasm of E. coli due to their fusion to appropriate signal sequences. Activity towards AGT substrates under reducing and oxidising conditions is compared by performing the reactions in the presence or absence of reducing agents such as dithiothreitol or beta-mercaptoethanol.
The mutant AGT gene of Example 1 is amplified and cloned as described in Example 1 with the oligonucleotides SEQ ID NO:3, SEQ ID NO:10 and SEQ ID NO:4, SEQ ID NO:9 causing the further mutation Cys62Ala in the gene upon their incorporation by PCR. Protein expression, purification and determination of yield is carried out as described in Example 1. The mutant gene is PCR amplified with the primers SEQ ID NO:11, SEQ ID NO:12 that contain SfiI restriction sites to subclone the gene in fusion to the g3 protein of filamentous phage in the vector pAK100 (Krebber et al., J Immunol Methods 201:35-55, 1997). […] The supernatant is directly subjected to quantification of protein yield via SDS-PAGE and activity assays as described in Example 1.
Stability under oxidizing conditions: The mutant gene is PCR amplified with the primers SEQ ID NO:11 and SEQ ID NO:28 to subclone the gene into pAK100, as described in Example 2. […] To compare the reactivity of […] (Juillerat et al., Chem Biol 10:313-317, 2003) and the mutant, samples are incubated with 1 µM BG-Bt for 50 min, quenched with SDS-Laemmli buffer and analyzed by western blotting using neutravidin peroxidase conjugate (Pierce) or a monoclonal mouse anti-FLAG IgG antibody (M2, Sigma) and a secondary anti-mouse-IgG::HRP conjugate, and Renaissance reagent plus (NEN). […] The anti-FLAG IgG antibody is used to estimate the total amount of soluble AGT protein, whereas neutravidin quantifies the reactive portion of it. […]

[2] = Expression yield of soluble GST-AGT fusion protein; set-up: species or system E. coli; conditions: comparator not stated
Procedure, shortened: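 GST-AGT fusions expressed in E. coli BL21, induced with 0.5 mM IPTG for 3.5 h at 24 °C, and purified from the soluble fraction on glutathione sepharose. Soluble and insoluble fractions compared by SDS-PAGE. Yield taken from A280 relative to wild-type hAGT purified the same way.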

B1: AGTM: AGT mutant Cys62Ala, Gln115Ser, Gln116His, Lys125Ala, Ala127Thr, Arg128Ala, Gly131Lys, Gly132Thr, Met134Leu, Arg135Ser, Cys150Asn, Ser151Ile, Ser152Asn, Asn157Gly, Ser159Glu, truncated after … (protein, UniProt P16455 1-207, looked up, variant C62A Q115S Q116H K125A A127T R128A G131K G132T M134L R135S C150N S151I S152N N157G S159E del183-207)
Methylated-DNA--protein-cystei …: MDKDCEMKRTTLDSPLGKLELSGCEQGLHEIKLLGKGTSAADAVEVPAPAAVLGGPEPLMQATAWLNAYFHQPEAIEEFPVPALHHPVFQQESFTRQVLWKLLKVVKFGEVISYSHLAALAGNPAATAAVKTALSGNPVPILIPCHRVVNINGAVGGYEGGLAVKEWLLAHEGHRLGKPGLG
modifications: His tag
sensitivity to oxidation [1]: reduced sensitivity to oxidation | expression yield in E. coli [2]: increased expression yield
